Experimental data taken from the nanobody polyreactivity screen of Harvey et al. (2022).

Assay: yeast display, Sf9 membrane polyspecificity reagent, FACS + sequencing; frameworks hold sequencing errors
Method in brief: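 Galactose-induced (36–48 hours) yeast carrying a synthetic nanobody display library were exposed to 10% biotinylated, detergent-solubilized Sf9 membrane reagent at 4 °C for 1 hour. FACS followed streptavidin microbead enrichment, using low and high (top ~1%) gates for expression (anti-HA) and reagent binding (streptavidin). Colony PCR, MiSeq 2 × 250 sequencing and CDR-length filtering followed. Labels for polyreactivity reflect the gate of origin.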

## QVQLVESGGGLVQAGGSLRLSCAASGFTFRYNAMGWYRQAPGKERELVAAISRSGGRTYYADSVKGRFTIARDNAKNTVYLQMNSLKPEDTAVYYCAAVAARITGFGYWGQGTQVTVSS
  polyreactivity (PSR sort gate): high polyreactivity

## QVQLVESGGGLVQAGGSLRLSCAASGFTFRYNAMGWYRQAPGKERELVAAITWRGGRTYYADSVKGRFTISRDNAKNTVYLQMNSLKPEDTAVYYCAVYRTSTRYVVDSDYWGQGTQVTVSS
  polyreactivity (PSR sort gate): low polyreactivity

## QVQLVESGGGLVQAGGSLRLSCAASGFTFRYNAMGWYRQAPGKKGSWVAAISRTGGSTYYADSVKGRFTISRDNAKNTVYLQMNSLKPEDTAVYYCATYSSRQRKSSYYYWGQGTQVTVSS
  polyreactivity (PSR sort gate): high polyreactivity

## QVQLVESGGGLVQAGGSLRLSCAASGFTFRYYAMGWYRKAPGKERELVAAITRRGGSKYYADSVKGRFTISRDNAKNTVYLQMNSLKPEDTAVYDCAASLWTTSADYDYWGQGTQVTVSS
  polyreactivity (PSR sort gate): high polyreactivity

## QVQLVESGGGLVQAGGSLRLSCAASGFTFRYYAMGWYRQAPGKERELVAAISSGGNTRYADSVKGRFTISRDNAKNTVYLQMNSLKPEDTAVYYCARRPGAWKYVYTGDYWGQGTQVTVSS
  polyreactivity (PSR sort gate): high polyreactivity

## QVQLVESGGGLVQAGGSLRLSCAASGFTFRYYAMGWYRQAPGKERELVAAISWRGGRTYYADSVKGRFTISRDNAKNTVYIQMNSLKPEDTAVYYCAALRERQTRGNYWGQGTQVTVSS
  polyreactivity (PSR sort gate): high polyreactivity

## QVQLVESGGGLVQAGGSLRLSCAASGFTFRYYAMGWYRQAPGKERELVAAITRNGGSTYYADSVKGRFTISRDNAKHTVYLQMNSLKPEETAVYYCNRYGRQYDFYYWGQGTQVTVSS
  polyreactivity (PSR sort gate): high polyreactivity

## QVQLVESGGGLVQAGGSLRLSCAASGFTFRYYTMGWYRQAPGKERELVARITTGGSTKYADSVKGRFTISRDNAKNTVYLQMNSLKPEDTAVYYCAARQYKWWFSQDGYDYWGQGTQVTVSS
  polyreactivity (PSR sort gate): high polyreactivity

## QVQLVESGGGLVQAGGSLRLSCAASGFTFRYYVMGWYRQAPGTERELVAAISWTGGSTYYADSVKGRFTISRDNAKNTVYLQMTSLKPEDTAVYYCNAASLSKSDYWGQGTQVTVSS
  polyreactivity (PSR sort gate): high polyreactivity

## QVQLVESGGGLVQAGGSLRLSCAASGFTFSAYAMGWYRQAPGKERELVAAISWSGSRTYYADSVKGRFTISRDNAKNTVYLQMNSLKPEDTAVYYCAKEPYDTFGFYEYDYWGQGTQVTVSS
  polyreactivity (PSR sort gate): low polyreactivity

## QVQLVESGGGLVQAGGSLRLSCAASGFTFSDNAMGWYRQAPGKEREFVATIDWSGGSTYYADSVKGRFTISRDNAKNTVYLQMNSLKPDDTAVYYCAATFRYSTSQYLQGYDYWGQGTQVTVSS
  polyreactivity (PSR sort gate): low polyreactivity

## QVQLVESGGGLVQAGGSLRLSCAASGFTFSDYAMGSNRQAPGKERELVAAITSRTGTTYYADSVKWRFTISRDNAKNTVYLQMNSLKPEDTAVYYCNKVKFRSQDMDYWGQGTQVTVSS
  polyreactivity (PSR sort gate): high polyreactivity

## QVQLVESGGGLVQAGGSLRLSCAASGFTFSFYTMGGYRQAPGTARELVAAISRNGGSTYYADSVKGRFTISRDNAKTTDYFQMNSLKPEDTAVYYCAARARGGDWGSGDYWGQGTQVTVSS
  polyreactivity (PSR sort gate): high polyreactivity

## QVQLVESGGGLVQAGGSLRLSCAASGFTFSGNTMGWSRQAPGKERELVATISRTGGITYYADSVKGRFTISRDNAKNTVYLQMNSLKPEDTAVYYCNRRYYYFVYPDDYWGQGTQVTVSS
  polyreactivity (PSR sort gate): high polyreactivity

## QVQLVESGGGLVQAGGSLRLSCAASGFTFSGYSMGWYRPAPGKERELVAAITKSGGSTYYADSVKGRFTISRDTAKNTVYLQMNSLKPEDTAVYYCNADVLYTTEGDYWGQGTQVTVSS
  polyreactivity (PSR sort gate): high polyreactivity

## QVQLVESGGGLVQAGGSLRLSCAASGFTFSHYAMGWYRQAPGKERELVAAISWGGGSTYYADSVKGRFTISRDNAKNTVYLQMKSLIPEDTAVYYCARDVVYRGYYYGAFDYCGQGTQVTVSS
  polyreactivity (PSR sort gate): low polyreactivity

## QVQLVESGGGLVQAGGSLRLSCAASGFTFSKYAMGWYRQAPGKERELVAAITSGDDTNYADSVKGRFTISRDNAKNTVYLQMNSLKPEDTAVYYCNAEYTVYYSYWAIGVDYWGQGTQVTVSS
  polyreactivity (PSR sort gate): high polyreactivity
